The results in this text go back to patent US20090324609A1.

For the test, the target named is PD-1 receptor on T cells of anti-CD3-activated Balb/c splenocytes (mouse) (UniProt Q02242). The experiment in a line: cell-based or functional assay.
Sequence of UniProt Q02242 (Q02242 25-288): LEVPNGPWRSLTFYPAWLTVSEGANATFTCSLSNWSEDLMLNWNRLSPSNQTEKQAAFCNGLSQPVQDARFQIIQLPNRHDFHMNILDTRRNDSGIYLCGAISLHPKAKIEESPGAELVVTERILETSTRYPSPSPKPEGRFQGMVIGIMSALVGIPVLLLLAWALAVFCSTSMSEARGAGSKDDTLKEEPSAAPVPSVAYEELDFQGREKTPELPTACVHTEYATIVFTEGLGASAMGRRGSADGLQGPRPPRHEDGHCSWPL

With “PD-L1 (Programmed death ligand 1) on the surface of wildtype C57BL/6 mouse mesenchymal stem cells (from UniProt Q9EP73 19-290)”, the Fold suppression of T cell proliferation by wildtype B6 MSCs (CFSE, anti-CD3-activated Balb/c splenocytes) is greater than 5 fold; the Fold suppression of T cell proliferation when PD-L1 is absent from the MSCs (B6 PD-L1-/- MSCs; CFSE, anti-CD3-activated Balb/c splenocytes) is less than 2 fold; the T cell proliferation (CFSE-labelled Balb/c splenocytes activated with anti-CD3, flow cytometry); percent proliferating with wildtype B6 MSCs, against 87% without MSCs amounted to 16%.
